Test results taken from patent publication US6914129 (dated 2005).

B1: IgE mutant 3 (protein)
chain: ASTQSPSVFPLTRCCKNIPSNATSVTLGCLATGYFPEPVMVTWDTGSLNGTTMTLPATTLTLSGHYATISLLTVSGAWAKQMFTCRVAHTPSSTDWVDNKTFSVCSRDFTPPTVKILQSSCDGGGHFPPTIQLLCLVSGYTPGTINITWLEDGQVMDVDLSTASTTQEGELASTQSELTLSQKHWLSDRTYTCQVTYQGHTFEDSTKKCADSNPRGVSAYLSRPSPFDLFIRKSPTITCLVVDLAPSKGTVNLTWSRASGKPVNHSTRKEEKQRNGTLTVTSTLPVGTRDWIEGETYQCRVTHPHLPRALMRSTTKTSGPRAAPEVYAFATPEWPGSRDKRTLACLIQNFMPEDISVQWLHNEVQLPDARHSTTQPRKTKGSGFFVFSRLEVTRAEWEQKDEFICRAVHEAASPSQTVQRAVSVNPGLAGGSAQSQRAPDRVLCHSGQQQGLPRAAGGSVPHPRCHCGAGRADWPGPPELDVCVEEAEGEAPWTWTGLC
B2: IgE mutant 50 (protein)
chain: ASTQSPSVFPLTRCCKNIPSNATSVTLGCLATGYFPEPVMVTWDTGSLNGTTMTLPATTLTLSGHYATISLLTVSGAWAKQMFTCRVAHTPSSTDWVDNKTFSVCSRDFTPPTVKILQSSCDGGGHFPPTIQLLCLVSGYTPGTINITWLEDGQVMDVDLSTASTTQEGELASTQSELTLSQKHWLSDRTYTCQVTYQGHTFEDSTKKCADSNPRGVSAYLSRPSPFDLFIRKSPTITCLVVDLAPSKGTVNLTWSRASGKPVNHSTRKEEKQRNGTLTVTSTLPVGTRDWIEGETYQCRVTHPHLPRALMRSTTKTSGPRAAPEVYAFATPEWPGSRDKRTLACLIQNFMPEDISVQWLHNEVQLPDARHSTTQPRKTKGSGFFVFSRLEVTRAEWEQKDEFICRAVHEAASPSQTVQRAVSVNPGLAGGSAQSQRAPDRVLCHSGQQQGLPRAAGGSVPHPRCHCGAGRADWPGPPELDVCVEEAEGEAPWTWTGLC
B3: IgE mutant 4 (protein)
chain: ASTQSPSVFPLTRCCKNIPSNATSVTLGCLATGYFPEPVMVTWDTGSLNGTTMTLPATTLTLSGHYATISLLTVSGAWAKQMFTCRVAHTPSSTDWVDNKTFSVCSRDFTPPTVKILQSSCDGGGHFPPTIQLLCLVSGYTPGTINITWLEDGQVMDVDLSTASTTQEGELASTQSELTLSQKHWLSDRTYTCQVTYQGHTFEDSTKKCADSNPRGVSAYLSRPSPFDLFIRKSPTITCLVVDLAPSKGTVNLTWSRASGKPVNHSTRKEEKQRNGTLTVTSTLPVLHQDWLDGKEYQCRVTHPHLPRALMRSTTKTSGPRAAPEVYAFATPEWPGSRDKRTLACLIQNFMPEDISVQWLHNEVQLPDARHSTTQPRKTKGSGFFVFSRLEVTRAEWEQKDEFICRAVHEAASPSQTVQRAVSVNPGLAGGSAQSQRAPDRVLCHSGQQQGLPRAAGGSVPHPRCHCGAGRADWPGPPELDVCVEEAEGEAPWTWTGLC
B4: IgE mutant 1 (protein)
chain: ASTQSPSVFPLTRCCKNIPSNATSVTLGCLATGYFPEPVMVTWDTGSLNGTTMTLPATTLTLSGHYATISLLTVSGAWAKQMFTCRVAHTPSSTDWVDNKTFSVCSRDFTPPTVKILQSSCDGGGHFPPTIQLLCLVSGYTPGTINITWLEDGQVMDVDLSTASTTQEGELASTQSELTLSQKHWLSDRTYTCQVTYQGHTFEDSTKKCADSNPRGVSAYLSRPSPFDLFIRKSPTITCLVVDLAPSKGTVNLTWSRASGKPVNHSTRKEEKQRNGTLTVTSTLPVGTRDWIEGETYQCRVTHPHLPRALMRSTTKTSGPRAAPEVYAFATPEWPGSRDKRTLACLIQNFMPEDISVQWLHNEVQLPDARHSTTQPRKTKGSGFFVFSRLEVTRAEWEQKDEFICRAVHEAASPSQTVQRAVSVNPGLAGGSAQSQRAPDRVLCHSGQQQGLPRAAGGSVPHPRCHCGAGRADWPGPPELDVCVEEAEGEAPWTWTGLC
B5: IgE mutant 62 (protein)
chain: ASTQSPSVFPLTRCCKNIPSNATSVTLGCLATGYFPEPVMVTWDTGSLNGTTMTLPATTLTLSGHYATISLLTVSGAWAKQMFTCRVAHTPSSTDWVDNKTFSVCSRDFTPPTVKILQSSCDGGGHFPPTIQLLCLVSGYTPGTINITWLEDGQVMDVDLSTASTTQEGELASTQSELTLSQAHWLSDRTYTCQVTYQGHTFEDSTKKCADSNPRGVSAYLSRPSPFDLFIRKSPTITCLVVDLAPSKGTVNLTWSRASGKPVNHSTRKEEKQRNGTLTVTSTLPVGTRDWIEGETYQCRVTHPHLPRALMRSTTKTSGPRAAPEVYAFATPEWPGSRDKRTLACLIQNFMPEDISVQWLHNEVQLPDARHSTTQPRKTKGSGFFVFSRLEVTRAEWEQKDEFICRAVHEAASPSQTVQRAVSVNPGLAGGSAQSQRAPDRVLCHSGQQQGLPRAAGGSVPHPRCHCGAGRADWPGPPELDVCVEEAEGEAPWTWTGLC

What was measured:
FceRII (CD23, FCEL) = target: T1, FceRII (CD23, FCEL) (human, UniProt P06734); experiment: FACS
T1 chain: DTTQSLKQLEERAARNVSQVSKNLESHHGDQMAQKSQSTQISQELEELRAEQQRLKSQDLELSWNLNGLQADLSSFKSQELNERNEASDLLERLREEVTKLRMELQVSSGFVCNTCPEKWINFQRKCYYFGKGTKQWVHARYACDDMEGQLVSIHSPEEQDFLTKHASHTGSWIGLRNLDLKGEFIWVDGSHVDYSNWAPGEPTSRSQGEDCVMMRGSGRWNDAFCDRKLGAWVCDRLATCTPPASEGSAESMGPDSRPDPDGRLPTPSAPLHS

FceRI alpha (FCEH) = target: T2, FceRI alpha (FCEH) (human, UniProt P12319); experiment: FACS
T2 chain: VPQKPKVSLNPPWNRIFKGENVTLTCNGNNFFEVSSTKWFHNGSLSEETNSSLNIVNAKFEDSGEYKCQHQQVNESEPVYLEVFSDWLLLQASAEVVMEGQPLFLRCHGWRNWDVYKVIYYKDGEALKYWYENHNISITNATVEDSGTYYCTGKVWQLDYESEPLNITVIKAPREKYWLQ

Binder | binding result (FceRII (CD23, FCEL)) | binding result (FceRI alpha (FCEH))
B1 | no binding | –
B2 | no binding | –
B3 | no binding | no binding
B4 | no binding | no binding
B5 | no binding | –
